Reference: article PMC2222952, “Structural and Biochemical Bases for the Inhibition of Autophagy and Apoptosis by Viral BCL-2 of Murine γ-Herpesvirus 68” (PLoS Pathogens, 2008)
Like-named read-outs stand apart in the source and are kept apart here. Ends that are not written are not given here.

T1: M11, viral BCL-2 of murine γ-herpesvirus 68 (residues 1–137) (Murid herpesvirus 4, UniProt P89884)
T1 construct: Each of the DNA fragments coding for M11 (residues 1–137); His6 tag; This is inferred: pPROEX HTa encodes an N-terminal His tag with a TEV site, and purification was on Ni-NTA; (N); made in house; host or cells: E. coli BL21(DE3)
T1 sequence (P89884 whole entry, looked up): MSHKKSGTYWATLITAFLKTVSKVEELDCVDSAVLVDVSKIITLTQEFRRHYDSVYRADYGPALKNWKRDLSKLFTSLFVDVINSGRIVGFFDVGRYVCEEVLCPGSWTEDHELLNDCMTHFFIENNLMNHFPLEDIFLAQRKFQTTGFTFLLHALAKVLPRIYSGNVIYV

B1: PUMA BH3 peptide, 26-mer (residues 130–155 of PUMA) (peptide, UniProt Q99ML1 130-155, looked up)
peptide: EEEWAREIGAQLRRMADDLNAQYERR
notes: also called PUMA peptide; source: synthetic peptide, bought: Peptron (Korea)
B2: human BCL-2 (residues 1–50 and 92–207, residues 35–50 replaced with residues 33–48 of BCL-XL) (domain or fragment, UniProt P10415-1 1-34, looked up)
chain: MAHAGRTGYDNREIVMKYIHYKLSQRGYEWDAGDNRTEAPEGTESEMETPVVHLTLRQAGDDFSRRYRRDFAEMSSQLHLTPFTARGRFATVVEELFRDGVNWGRIVAFFEFGGVMCVESVNREMSPLVDNIALWMTEYLNRHLHTWIQDNGGWDAFVELYGPSMR
notes: also called cellular BCL-2; source: E. coli BL21(DE3), purified (Ni-NTA, Hitrap Q)
B3: BIM BH3 peptide, 26-mer (residues 139–164 of BIM) (peptide, UniProt O54918-1 139-164, looked up)
peptide: DLRPEIRIAQELRRIGDEFNETYTRR
notes: also called BIM peptide; source: synthetic peptide, bought: Peptron (Korea)
B4: Beclin1(101–267): mouse Beclin1 fragment containing residues 101–267, expressed as a soluble form in E. coli (protein)
chain: ASDGGTMENLSRRLKVTGDLFDIMSGQTDVDHPLCEECTDTLLDQLDTQLNVTENECQNYKRCLEILEQMNEDDSEQLQRELKELALEEERLIQELEDVEKNRKVVAENLEKVQAEAERLDQEEAQYQREYSEFKRQQLELDDELKSVENQVRYAQIQLDKLKKTNV
B5: M11 (residues 1–137), purified alone (domain or fragment)
chain: MSHKKSGTYWATLITAFLKTVSKVEELDCVDSAVLVDVSKIITLTQEFRRHYDSVYRADYGPALKNWKRDLSKLFTSLFVDVINSGRIVGFFDVGRYVCEEVLCPGSWTEDHELLNDCMTHFFIENNLMNHFPLEDI
notes: source: E. coli BL21(DE3), purified (Ni-NTA, Hitrap Q)
B6: Noxa BH3 peptide, 26-mer (residues 16–41 of Noxa) (peptide, UniProt Q9JM54 16-41, looked up)
peptide: RAELPPEFAAQLRKIGDKVYCTWSAP
notes: also called Noxa peptide; source: synthetic peptide, bought: Peptron (Korea)
B7: BAX BH3 peptide, 26-mer (residues 52–77 of BAX) (peptide, UniProt Q07813-1 52-77, looked up)
peptide: QDASTKKLSECLRRIGDELDSNMELQ
notes: also called BAX peptide; source: synthetic peptide, bought: Peptron (Korea)
B8: BAD BH3 peptide, 27-mer (residues 137–163 of BAD) (peptide, UniProt Q61337 137-163, looked up)
peptide: APPNLWAAQRYGRELRRMSDEFEGSFK
notes: also called BAD peptide; source: synthetic peptide, bought: Peptron (Korea)
B9: BAK BH3 peptide, 26-mer (residues 65–90 of BAK) (peptide, UniProt O08734 65-90, looked up)
peptide: PNSILGQVGRQLALIGDDINRRYDTE
notes: also called BAK peptide; 26-mer BAK peptide; source: synthetic peptide, bought: Peptron (Korea)
B10: BID BH3 peptide, 25-mer (residues 80–104 of BID) (peptide, UniProt P70444 80-104, looked up)
peptide: EEIIHNIARHLAQIGDEMDHNIQPT
notes: also called BID peptide; source: synthetic peptide, bought: Peptron (Korea)

Key:
[1] = biological target: T1, M11, viral BCL-2 of murine γ-herpesvirus 68 (residues 1–137); format: binding
Excerpt: (§1) “HT”, “CCD” and “ECD” denote hydrophobic tail, coiled-coil domain and evolutionarily conserved domain, respectively. […] The surface coloring scheme is as follows: olive for Val, Leu, Ile, Phe, Trp, Met, and Ala; yellow for Cys, Gly, Tyr, and Pro; gray for other amino acids. […] Only the BH3-binding groove region of M11 is shown for clarity. […] The arrows indicate the movements of the Cα atoms of Asp59 and Tyr60 in M11. (C) ITC analysis.
(§2) Figure 5 Analyses of the Interactions between M11 or BCL-2 Proteins and BAX/BAK (A) Cell-based binding assay. 293T cells were transfected with HA-tagged BAK or Flag-tagged BAX together with the indicated GST-tagged prosurvival BCL-2 proteins. Whole cell lysates were used for immunoprecipitation with anti-GST followed by immunoblotting with anti-HA or anti-Flag. […] (B) ITC analyses of the interactions of M11 with the BH3 peptides of BAX or BAK. The ITC analysis was carried out by titrating 0.1 mM of the indicated peptides into 5 μM of M11. The ITC run for the titration of the 26-mer BAK peptide is shown. […] NIH3T3 cells were transfected with HA-tagged M11 and whole cell lysates were used for immunoprecipitation with control rabbit serum or anti-BAK followed by immunoblotting with anti-HA.
(§3) A plasmid containing the DNA segment coding for human BCL-2 (residues 1–50 and 92–207) was also constructed. The resulting protein lacks the internal long loop (residues 51–91) and contains a replacement of residues 35–50 with residues 33–48 of BCL-XL, which was necessary for the solubility of the protein as reported earlier. Each construct was introduced into the E. coli BL21(DE3) strain. The proteins were expressed at 21 °C overnight and purified using a Ni-NTA column and a Hitrap Q anion exchange column.
(§4) All measurements were carried out at 25 °C on a MicroCalorimetry System (MicroCal). Protein samples were dialyzed against the solution containing 20 mM Tris-HCl (pH 7.4) and 100 mM NaCl. The samples were degassed for 20 min and centrifuged to remove any residuals prior to the measurements. Dilution enthalpies were measured in separate experiments (titrant into buffer) and subtracted from the enthalpies of the binding between the protein and the titrant. Data were analyzed using the Origin software (OriginLab Corp.).

BCL-XL ∆C24 = conditions: Table S1; relative values, not absolute KD; peptides of Chen et al. are the same as or 1 to 2 residues shorter than those of this paper; read-out: binding affinity for BCL-XL ∆C24 (relative value, competitive binding assay); cited from earlier work
BCL-w ∆C29 = conditions: Table S1; relative values, not absolute KD; peptides of Chen et al. are the same as or 1 to 2 residues shorter than those of this paper; read-out: binding affinity for BCL-w ∆C29 (relative value, competitive binding assay); cited from earlier work
A1 ∆C20 = system: A1 ∆C20; set-up: method as in earlier work; conditions: Table S1; relative values, not absolute KD; peptides of Chen et al. are the same as or 1 to 2 residues shorter than those of this paper; read-out: binding affinity for A1 ∆C20 (relative value, competitive binding assay); cited from earlier work
MCL ∆N151 ∆C23 = system: MCL ∆N151 ∆C23; set-up: method as in earlier work; conditions: Table S1; relative values, not absolute KD; peptides of Chen et al. are the same as or 1 to 2 residues shorter than those of this paper; read-out: binding affinity for MCL ∆N151 ∆C23 (relative value, competitive binding assay); cited from earlier work
[2] = biological target: T2, M11, viral BCL-2 of murine γ-herpesvirus 68 (residues 1–137) (Murid herpesvirus 4, UniProt P89884); format: binding; conditions: ITC, 25 °C, 20 mM Tris-HCl (pH 7.4), 100 mM NaCl; Table S2
T2 construct: Each of the DNA fragments coding for M11 (residues 1–137); His6 tag; This is inferred: pPROEX HTa encodes an N-terminal His tag with a TEV site, and purification was on Ni-NTA; (N); made in house; host or cells: E. coli BL21(DE3)
Excerpt: as §1, §2, §3, §4

BCL-2 ∆C22 = system: BCL-2 ∆C22; set-up: method as in earlier work; conditions: Table S1; relative values, not absolute KD; peptides of Chen et al. are the same as or 1 to 2 residues shorter than those of this paper; read-out: binding affinity for BCL-2 ∆C22 (relative value, competitive binding assay); cited from earlier work
[3] = biological target: B5; assay: ITC; conditions: both partners purified
Beclin1(101–267) = biological target: T3, Beclin1(101–267) (mouse, UniProt O88597 101-267); assay: ITC; conditions: both partners purified
T3 construct: also called Beclin1 fragment containing residues 101–267; large Beclin1 fragment; source: E. coli BL21(DE3), purified (Ni-NTA, Hitrap Q)

[4] = biological target: T4, mouse BCL-XL (residues 1–44 and 85–196) (mouse, UniProt Q64373-1 1-196, lacking the internal long loop (residues 45–84)); assay: native gel or EMSA; conditions: both partners purified
T4 construct: also called BCL-XL lacking the internal long loop and the C-terminal tail region

[5] = biological target: human BCL-2 (residues 1–50 and 92–207); assay: Isothermal titration calorimetry (ITC) of BCL-2 with Beclin1 fragment; format: binding
Protocol: Figure 3 M11 Interacts Much More Tightly with Beclin1 than BCL-2 and BCL-XL (A) ITC analysis. The measurement was carried out by titrating 0.1 mM of M11 or BCL-2 into 5 μM of the indicated Beclin1 fragment. The K D values were deduced from curve fittings of the integrated heat per mol of added ligand. (B) M11–Beclin1 interface is tighter than that of BCL-XL–Beclin1. The structures of M11–Beclin1 fragment (left) and BCL-XL–Beclin1 peptide (right) are compared side by side. In both the structures, the five consensus BH3 residues of the bound α-helices and the side chains of M11 or BCL-XL interacting with those residues are shown as sticks and labeled. Noted are the tighter interactions of the N-terminal region of Beclin1 with the α3 helix of M11 than the corresponding region in the BCL-XL–Beclin1 helix (indicated by dotted circles).
Each of the DNA fragments coding for M11 (residues 1–137), mouse BCL-XL (residues 1–44 and 85–196) or mouse Beclin1 (residues 101–267) was cloned into pPROEX HTa. […]
All measurements were carried out at 25 °C on a MicroCalorimetry System (MicroCal). […] Dilution enthalpies were measured in separate experiments (titrant into buffer) and subtracted from the enthalpies of the binding between the protein and the titrant. Data were analyzed using the Origin software (OriginLab Corp.).

[6] = 25 °C, 20 mM Tris-HCl (pH 7.4), 100 mM NaCl
[7] = ITC, 25 °C, 20 mM Tris-HCl (pH 7.4), 100 mM NaCl, Table S2

T4 sequence (Q64373 other isoform, or with tags, fused parts or gaps with the stated changes): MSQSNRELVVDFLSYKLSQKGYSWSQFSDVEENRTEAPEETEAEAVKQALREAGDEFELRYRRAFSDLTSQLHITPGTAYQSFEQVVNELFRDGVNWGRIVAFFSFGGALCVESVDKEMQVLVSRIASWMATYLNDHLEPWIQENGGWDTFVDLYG

With “BAK (16-mer; residues 69-84): synthetic 16-mer peptide, residues 69–84 of BAK, spanning the BH3 domain (LGQVGRQLALIGDDIN)” the “interaction with M11 in ITC, in words (KD could not be deduced)” value (“interaction … (KD could not be deduced)” for short) [1, 6] was “flat titration curve”.

In the case of “BIK: synthetic 25-mer BH3 peptide, residues 45–69 of BIK (VEGRNQVALRLACIGDEMDLCLRSP)”, the “interaction … (KD could not be deduced)” value [1, 6] is listed as “did not interact or poorly interacted”, the IC50 (BCL-XL ∆C24) is listed as 43 nM and the IC50 (BCL-w ∆C29) is listed as 12 nM. For the same molecule, the IC50 (A1 ∆C20) was 58 nM.

With “Beclin1 fragment composed of residues 101–116: a shorter Beclin1 fragment composed of residues 101–116 (ASDGGTMENLSRRLKV)” the “interaction … (KD could not be deduced)” value [1, 6] was “no sign of interaction”.

In the case of EEEWAREIGAQLRRMADDLNAQYERR [PUMA], the IC50 (MCL ∆N151 ∆C23) is given as 5 nM and the IC50 (A1 ∆C20) is given as 5.7 nM.

In the case of HRAEVQIARKLQCIADQFHRLHTQ [BMF], the “-T∆S (M11 + BH3)” value [2] is reported as -2.56 kcal/mol, the “∆G (M11 + BH3)” value [2] is reported as -8.90 kcal/mol and the “∆H (M11 + BH3)” value [2] is reported as -6.34 ± 0.07 kcal/mol. For the same molecule, the IC50 (BCL-2 ∆C22) was 3 nM, the IC50 (BCL-XL ∆C24) was 9.7 nM and the IC50 (BCL-w ∆C29) was 9.8 nM. For the same molecule, the IC50 (MCL ∆N151 ∆C23) was 1100 nM and the IC50 (A1 ∆C20) was 1800 nM.

For RWAAAQVTALRLQALGDELHRRAMRR [Hrk], the IC50 (BCL-2 ∆C22) is listed as 320 nM, the IC50 (BCL-XL ∆C24) is listed as 3.7 nM and the IC50 (BCL-w ∆C29) is listed as 49 nM. The IC50 (A1 ∆C20) was 46 nM.

B1: binds [3].

For B2, the Kd (Beclin1(101–267)) was 1700 nM.

B3: binds [3]; binds [4].

In the case of B4, the Kd ([1]; ITC, 25 °C, 20 mM Tris-HCl (pH 7.4), 100 mM NaCl, 0.1 mM M11 titrated into 5 μM Beclin1 fragment, KD from curve fitting, listed as Residues 101 - 267, read-out: KD (M11 – Beclin1 fragment)) is reported as 40.2 ± 9.05 nM, the Kd ([1]; ITC, 25 °C, 20 mM Tris-HCl (pH 7.4), 100 mM NaCl, 0.1 mM M11 titrated into 5 μM Beclin1 fragment, KD from curve fitting, read-out: KD (M11 – Beclin1 fragment)) is reported as 40 nM and the “-T∆S (M11 + Beclin1)” value [1, 7] is reported as 4.23 kcal/mol. The “∆G (M11 + Beclin1)” value [1, 7] was -10.10 kcal/mol, the “∆H (M11 + Beclin1)” value [1, 7] was -14.33 ± 0.23 kcal/mol and the Kd ([1]; ITC, read-out: dissociation constant (M11 – BH3-like domain of Beclin1)) was 40 nM. It also gave a Kd ([5]; 25 °C, 20 mM Tris-HCl (pH 7.4), 100 mM NaCl, Table S2, read-out: KD (BCL-2 + Beclin1)) of 1680 ± 452 nM and a Kd ([5]; read-out: binding affinity between cellular BCL-2 and Beclin1) of 1700 nM.

B5 gave a Kd (Beclin1(101–267)) of 40 nM.

B6: binds [3].

Molecule B7 has a Kd [3] of 690 nM.

B8: binds [4].

B9 showed a Kd [3] of 76 nM.

B10: binds [3].
